Here are results for 1 molecule from patent US20040235064A1 (YALE UNIVERSITY, published 2004).

This assay addresses T1, CZGFP (Aequorea victoria (GFP part); CZ helix …).
T1 construct: Expressed in E. coli BL21(DE3) and purified for the in vitro assays; expressed from a pET11a plasmid in the colony assays; also called EK-CGFP; C-terminal GFP fusion peptide
In words: competition: EK peptide added to refolding NZGFP/CZGFP complex (4 µM), fluorescence at 505 nm; competitor of NZGFP. How it is done: For inhibition experiments all fluorescence measurements were made in triplicate on a Hitachi F-4500 Fluorescence Spectrophotometer with excitation at 475 nm and emission at 505 nm. A 1.2 mM stock solution of equimolar amounts of NZGFP/CZGFP was allowed to reassemble and fluoresce until there was no change in fluorescence (36 hours). The reassembled complex was denatured in 4 M GdmHCl for 4 hours following which different concentrations of EK peptide, NGFP, or CGFP were added and the NZGFP/CZGFP concentration adjusted to 800 μM. The samples were diluted 200 fold into 2 mM DTT, 10 mM Tris.HCl buffer at pH 7.2 to a 20 mM final concentration of Gdm.HCl and allowed to refold and fluoresce. In order to eliminate artifacts from time dependent inhibition, fluorescence measurements were made after 4 hours and after 16 hours and found to be constant.
To verify that the GRIP assay could be utilized for detecting inhibitors of protein-protein interactions (Zutshi, R., et al., 1998, Curr. Opin. Chem. Biol. 2, 62-66), a LZ peptide corresponding to the LZ present in NZGFP (FIG. 4) was synthesized. The reappearance of fluorescence of the disassembled NZGFP/CZGFP complex in an in vitro assay as a function of added peptide was monitored (FIG. 6). The EK peptide (SEQ ID NO: 1) prevented the assembly of the complex (4 μM) with an IC₅₀ value of 31 μM. […]

T1 sequence (chain, as listed by the source): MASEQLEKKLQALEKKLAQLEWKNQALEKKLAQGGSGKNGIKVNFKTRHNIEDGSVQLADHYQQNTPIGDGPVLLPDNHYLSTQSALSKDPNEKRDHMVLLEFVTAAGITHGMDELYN

B1: EK peptide (peptide)
peptide: ALKKELQANKKELAQLKWELQALKKELAQ
notes: Chemically synthesized and HPLC purified; also called LZ peptide
Take B1: the IC50 (in general, the concentration that gives 50% inhibition) amounted to 31 µM.
